Results reported in PMC8684735.

Target: chicken F-actin (chicken) (UniProt P68139)
Assay: co-sedimentation

Row | Kd [µM] | Substance
1 | 2 | Drosophila indirect flight muscle myosin isoform (IFI) subfragment-1 (S1), S532P mutant (domain or fragment)
2 | 1.26 | Drosophila indirect flight muscle myosin isoform (IFI) subfragment-1 (S1), wild-type control (domain or fragment)
